From paper PMC5618543, “Differences in Sulfotyrosine Binding amongst CXCR1 and CXCR2 Chemokine Ligands” (International Journal of Molecular Sciences, 2017)

Legend:
[1] = target: CXCR2 (Homo sapiens) (UniProt P25025); conditions: cited from earlier work
[2] = target: CXCR1 (Homo sapiens) (UniProt P25024); conditions: cited from earlier work
[3] = target: T1, CXCL8 (Homo sapiens, UniProt P10145); test: 1H-15N HSQC NMR titration ([…] sY, […]N-CXCL8); type: binding
T1 sequence (P10145 23-99): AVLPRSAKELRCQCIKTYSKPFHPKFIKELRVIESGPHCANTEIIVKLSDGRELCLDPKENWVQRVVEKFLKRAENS

Chain of CXCR2 (Homo sapiens) (P25025 whole entry): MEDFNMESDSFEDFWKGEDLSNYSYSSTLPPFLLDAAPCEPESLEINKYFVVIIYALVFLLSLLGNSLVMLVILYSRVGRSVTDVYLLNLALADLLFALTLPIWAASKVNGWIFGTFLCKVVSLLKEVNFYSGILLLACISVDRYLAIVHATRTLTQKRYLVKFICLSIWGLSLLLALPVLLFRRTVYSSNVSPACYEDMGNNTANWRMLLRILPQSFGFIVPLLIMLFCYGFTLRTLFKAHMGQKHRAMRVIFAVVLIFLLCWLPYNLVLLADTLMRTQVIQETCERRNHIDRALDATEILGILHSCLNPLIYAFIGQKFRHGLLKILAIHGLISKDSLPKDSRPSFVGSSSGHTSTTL
Chain of CXCR1 (Homo sapiens) (P25024 whole entry): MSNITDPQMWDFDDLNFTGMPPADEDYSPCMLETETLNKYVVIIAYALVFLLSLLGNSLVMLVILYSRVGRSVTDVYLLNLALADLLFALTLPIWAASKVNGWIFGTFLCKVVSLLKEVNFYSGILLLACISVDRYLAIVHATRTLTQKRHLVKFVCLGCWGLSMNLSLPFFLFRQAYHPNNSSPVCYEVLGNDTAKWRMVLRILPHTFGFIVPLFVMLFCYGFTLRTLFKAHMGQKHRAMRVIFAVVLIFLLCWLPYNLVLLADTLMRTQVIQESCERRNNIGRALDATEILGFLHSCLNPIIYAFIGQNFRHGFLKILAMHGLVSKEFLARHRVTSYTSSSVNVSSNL

Kd [3]	Molecule	Kd [1]	Kd [2]
	CXCL5 (from UniProt P42830)	0.011 µM	0.04 µM
35200 ± 1950 µM	N[C@@H](Cc1ccc(OS(=O)(=O)O)cc1)C(=O)O [sY, sulfotyrosine]		
